This passage reports stoichiometry N results from PMC11383374.

This experiment concerns the target the protein biologic (purified DNASE1-Fc enzyme biologic analysed by size-exclusion chromatography with light scattering) (not stated (murine and human isoforms were made)) (UniProt P49183). Description: SEC-MALS; size-exclusion chromatography with light scattering; two separate concentrations of sample loading; single peak; hydrodynamic radius 5.3 nm.

Turning to “the protein biologic (purified DNASE1-Fc enzyme biologic analysed by size-exclusion chromatography with light scattering) (from UniProt P49183 23-284) (Fc fusion)”, the stoichiometry N – broadly, the number of molecules, sites or subunits per partner or assembly – is 2.
